The experiment has as its target SARS-CoV-2 spike (S) glycoprotein on live SARS-CoV-2 virus (SARS-CoV-2) (UniProt P0DTC2). Kind of experiment: cell-based or functional assay.

This passage reports in vitro virus neutralization EC50 results from patent US20220002699A1.

As to Neg control, the in vitro virus neutralization EC50 is above 10 µg/mL.
